Measured values: the supplement of paper PMC10567573

B1: TRAF3IP2 (parent)
chain: KQGSMNFRFIPVLFPNAKKEHVPT

Variants of: B1
Experiment: protein stability index of a GFP-peptide fusion (GPS, HEK-293T) (PSI 1-6); higher = more stable
Conditions: c terminus: a fixed tail appended
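Note: lentivirally expressed fusions sorted by FACS into six bins by GFP to DsRed ratio, PSI derived from sequencing read proportions per bin multiplied by bin number.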

Row | Variant | protein stability index
1 | KQGSQNFRFIPVLFPNAKKEHVPT [M5Q] | 2.65
2 | KQGSMNFRFIPVEFPNAKKEHVPT [L13E] | 2.88
3 | KQGSMNFRFIPVKFPNAKKEHVPT [L13K] | 2.06
4 | KQGSMNFRFIPVIFPNAKKEHVPT [L13I] | 1.75
5 | KQGSMNFRFIPVHFPNAKKEHVPT [L13H] | 2.38
6 | KQGSMNFRFIPVGFPNAKKEHVPT [L13G] | 1.93
7 | KQGSMNFRFIPVFFPNAKKEHVPT [L13F] | 2.04
8 | KQGSMNFRFIPVMFPNAKKEHVPT [L13M] | 1.77
9 | KQGSMNFRFIPVAFPNAKKEHVPT [L13A] | 1.66
10 | KQGSMNFRFIPVCFPNAKKEHVPT [L13C] | 2.07
11 | KQGSMNFRFIPVDFPNAKKEHVPT [L13D] | 2.62
12 | KQGSMNFRFFPVLFPNAKKEHVPT [I10F] | 2.11
13 | KQGSMNFRFPPVLFPNAKKEHVPT [I10P] | 3.42
14 | KQGSMNFRFNPVLFPNAKKEHVPT [I10N] | 2.9
15 | KQGSMNFRFMPVLFPNAKKEHVPT [I10M] | 2.23
16 | KQGSMNFRFHPVLFPNAKKEHVPT [I10H] | 1.67
17 | KQGSMNFRFYPVLFPNAKKEHVPT [I10Y] | 2.29
18 | KQGSMNFRFLPVLFPNAKKEHVPT [I10L] | 2.23
19 | KQGSMNFRFKPVLFPNAKKEHVPT [I10K] | 2.56
20 | KQGSMNFRFGPVLFPNAKKEHVPT [I10G] | 2.76
21 | KQGSMNFRFCPVLFPNAKKEHVPT [I10C] | 2.3
22 | KQGSMNFRFRPVLFPNAKKEHVPT [I10R] | 2.75
23 | KQGSMNFRFEPVLFPNAKKEHVPT [I10E] | 3.16
24 | KQGSMNFRFQPVLFPNAKKEHVPT [I10Q] | 1.98

Row | Variant | protein stability index
25 | KQGSMNFRFVPVLFPNAKKEHVPT [I10V] | 1.31
26 | KQGSMNFRFWPVLFPNAKKEHVPT [I10W] | 1.97
27 | KQGSMNFRFTPVLFPNAKKEHVPT [I10T] | 2.07
28 | KQGSMNFRFAPVLFPNAKKEHVPT [I10A] | 1.98
29 | KQGSMNFRFSPVLFPNAKKEHVPT [I10S] | 2.46
30 | KQGSMNFRFDPVLFPNAKKEHVPT [I10D] | 3.37
31 | KQGSMNFRFIPPLFPNAKKEHVPT [V12P] | 2.33
32 | KQGSMNFRFIPFLFPNAKKEHVPT [V12F] | 2.14
33 | KQGSMNFRFIPNLFPNAKKEHVPT [V12N] | 2.84
34 | KQGSMNFRFIPYLFPNAKKEHVPT [V12Y] | 1.97
35 | KQGSMNFRFIPWLFPNAKKEHVPT [V12W] | 2.06
36 | KQGSMNFRFIPGLFPNAKKEHVPT [V12G] | 1.96
37 | KQGSMNFRFIPILFPNAKKEHVPT [V12I] | 2.14
38 | KQGSMNFRFIPLLFPNAKKEHVPT [V12L] | 2.12
39 | KQGSMNFRFIPSLFPNAKKEHVPT [V12S] | 2.35
40 | KQGSMNFRFIPKLFPNAKKEHVPT [V12K] | 2.39
41 | KQGSMNFRFIPTLFPNAKKEHVPT [V12T] | 1.86
42 | KQGSMNFRFIPDLFPNAKKEHVPT [V12D] | 2.17
43 | KQGSMNFRFIPELFPNAKKEHVPT [V12E] | 2.76
44 | KQGSMNFRFIPCLFPNAKKEHVPT [V12C] | 2.35
45 | KQGSMNFRFIPRLFPNAKKEHVPT [V12R] | 2.49
46 | KQGSMNFRFIPMLFPNAKKEHVPT [V12M] | 1.86
47 | KQGSMNFRFIPQLFPNAKKEHVPT [V12Q] | 2.4
48 | KQGSMNFRFIPHLFPNAKKEHVPT [V12H] | 2.39

Row | Variant | protein stability index
49 | KQGSMNFRFIPALFPNAKKEHVPT [V12A] | 2.31
50 | KQSSMNFRFIPVLFPNAKKEHVPT [G3S] | 1.82
51 | KQVSMNFRFIPVLFPNAKKEHVPT [G3V] | 2.06
52 | KQWSMNFRFIPVLFPNAKKEHVPT [G3W] | 2.25
53 | KQPSMNFRFIPVLFPNAKKEHVPT [G3P] | 1.74
54 | KQYSMNFRFIPVLFPNAKKEHVPT [G3Y] | 1.33
55 | KQRSMNFRFIPVLFPNAKKEHVPT [G3R] | 1.83
56 | KQTSMNFRFIPVLFPNAKKEHVPT [G3T] | 2.44
57 | KQQSMNFRFIPVLFPNAKKEHVPT [G3Q] | 1.85
58 | KQGSMNFRLIPVLFPNAKKEHVPT [F9L] | 2.44
59 | KQGSMNFRPIPVLFPNAKKEHVPT [F9P] | 3.22
60 | KQGSMNFRVIPVLFPNAKKEHVPT [F9V] | 2.77
61 | KQGSMNFREIPVLFPNAKKEHVPT [F9E] | 3.94
62 | KQGSMNFRRIPVLFPNAKKEHVPT [F9R] | 2.84
63 | KQGSMNFRYIPVLFPNAKKEHVPT [F9Y] | 2.5
64 | KQGSMNFRKIPVLFPNAKKEHVPT [F9K] | 3.41
65 | KQGSMNFRSIPVLFPNAKKEHVPT [F9S] | 3.2
66 | KQGSMNFRTIPVLFPNAKKEHVPT [F9T] | 3.66
67 | KQGSMNFRNIPVLFPNAKKEHVPT [F9N] | 3.56
68 | KQGSMNFRAIPVLFPNAKKEHVPT [F9A] | 3.43
69 | KQGSMNFRIIPVLFPNAKKEHVPT [F9I] | 2.06
70 | KQGSMNFRDIPVLFPNAKKEHVPT [F9D] | 3.99
71 | KQGSMNFRQIPVLFPNAKKEHVPT [F9Q] | 3.3
72 | KQGSMNFRMIPVLFPNAKKEHVPT [F9M] | 2.69

Row | Variant | protein stability index
73 | KQGSMNFRCIPVLFPNAKKEHVPT [F9C] | 2.15
74 | KQGSMNFRHIPVLFPNAKKEHVPT [F9H] | 3.38
75 | KQGSMNFRGIPVLFPNAKKEHVPT [F9G] | 3.17
76 | KQGSMNFRWIPVLFPNAKKEHVPT [F9W] | 2.31
77 | KQGLMNFRFIPVLFPNAKKEHVPT [S4L] | 1.2
78 | KQGRMNFRFIPVLFPNAKKEHVPT [S4R] | 1.48
79 | KQGGMNFRFIPVLFPNAKKEHVPT [S4G] | 1.53
80 | KQGTMNFRFIPVLFPNAKKEHVPT [S4T] | 2
81 | KQGCMNFRFIPVLFPNAKKEHVPT [S4C] | 1.73
82 | KQGFMNFRFIPVLFPNAKKEHVPT [S4F] | 1.5
83 | KQGYMNFRFIPVLFPNAKKEHVPT [S4Y] | 2.14
84 | KQGMMNFRFIPVLFPNAKKEHVPT [S4M] | 1.81
85 | KQGPMNFRFIPVLFPNAKKEHVPT [S4P] | 2.98
86 | KQGQMNFRFIPVLFPNAKKEHVPT [S4Q] | 2.59
87 | KQGEMNFRFIPVLFPNAKKEHVPT [S4E] | 2.57
88 | KQGNMNFRFIPVLFPNAKKEHVPT [S4N] | 2.26
89 | KQGHMNFRFIPVLFPNAKKEHVPT [S4H] | 1.68
90 | KQGAMNFRFIPVLFPNAKKEHVPT [S4A] | 2.68
91 | KQGDMNFRFIPVLFPNAKKEHVPT [S4D] | 2.4
92 | KQGWMNFRFIPVLFPNAKKEHVPT [S4W] | 1.41
93 | KQGVMNFRFIPVLFPNAKKEHVPT [S4V] | 1.87
94 | KQGKMNFRFIPVLFPNAKKEHVPT [S4K] | 1.74
